The target in experiment [1] is T1, human CD28 (full-length, cell surface) (human, UniProt P10747 19-220).
T1 construct: On HEK293FS cells transiently transfected with full-length human CD28, or endogenous on Jurkat cells and primary human T cells; also called hCD28; cluster of differentiation 28
Briefly: flow cytometry, titration of sdAb-hFc on HEK293FS cells transiently transfected with full-length human CD28; Alexa Fluor 647 anti-human IgG.
Method: HEK293FS transiently transfected with full-length human CD28 or cynomolgus CD28 were used as CD28-positive cells. Untransfected HEK293FS cells were used as CD28-negative cells. Cells were seeded in 96-well round-bottom plates at 3×10³ cells/well in FACS buffer. The exemplary generated sdAb-hFcs were titrated onto cells and assay plates were incubated for 30 minutes at 4° C. […] Assay plates were incubated for 30 minutes at 4° C. and then cells were washed two times with FACS buffer and resuspended in FACS buffer for analysis using an Intellicyt iQue®.

In experiment [2] the target is T1, human CD28 (full-length, cell surface). Briefly: flow cytometry, titration on Jurkat cells (endogenous CD28).
For experiment [3] the target is unchanged. Briefly: flow cytometry on Jurkat cells and primary T cells enriched from PBMCs (endogenous CD28).
Experiment [4] has the same target. The experiment in a line: flow cytometry, titration on Jurkat cells (5T4-/PDL1-/CD28+).

The results in this text go back to patent publication US20230348600A1 (INHIBRX, published 2023).

B1: 2F11 CD28 sdAb formatted with human IgG1 Fc (sdAb-hFc) (Fc fusion)
chain: QVQLQQSGGGLVQAGGSLRLSCVASGISFNVVDMDWHRQAPGKERELVAGITRGGATYYADSVKGRFTISRDNAKNSAYLQLANLKPEDTAVYYCNARWPSRYQNYWGQGTQVTVKPPAPELLGGPSVFLFPPKPKDTLMISRTPEVTCVVVDVSHEDPEVKFNWYVDGVEVHNAKTKPREEQYNSTYRVVSVLTVLHQDWLNGKEYKCKVSNKALPAPIEKTISKAKGQPREPQVYTLPPSRDELTKNQVSLTCLVKGFYPSDIAVEWESNGQPENNYKTTPPVLDSDGSFFLYSKLTVDKSRWQQGNVFSCSVMHEALHNHYTQKSLSLSPGK
notes: Bivalent sdAb-IgG1 homodimer; I treated them as the same clone; also called 2F11 sdAb-IgG1
For B1, the binding result in experiment [1] is recorded as “binds”.

B2: 1C9 CD28 sdAb formatted with human IgG1 Fc (sdAb-hFc) (Fc fusion)
chain: EVQLVQSGGGLVQTGGSLRLSCAASGRMFSNYAMGWFRQAPGKEREFVAAINYRRDSADYADSVKGRFTISRDNAKNTVYLEMNSLKPEDTAIYYCGFTYAGWASSRRDDYNYWGQGTQVTVKPPAPELLGGPSVFLFPPKPKDTLMISRTPEVTCVVVDVSHEDPEVKFNWYVDGVEVHNAKTKPREEQYNSTYRVVSVLTVLHQDWLNGKEYKCKVSNKALPAPIEKTISKAKGQPREPQVYTLPPSRDELTKNQVSLTCLVKGFYPSDIAVEWESNGQPENNYKTTPPVLDSDGSFFLYSKLTVDKSRWQQGNVFSCSVMHEALHNHYTQKSLSLSPGK
notes: Bivalent sdAb-IgG1 homodimer; also called 1C9-IgG1; 1C9 sdAb-IgG1
For B2, the binding result in experiment [1] is “binds”.

B3: cx984 (CD28 monospecific construct) (Fc fusion)
chain: EVQLVQSGGGLVQTGGSLRLSCAASGRMFSNYAMGWFRQAPGKEREFVAAINYRRDSADYADSVKGRFTISRDNAKNTVYLEMNSLKPEDTAIYYCGFTYAGWASSRRDDYNYWGQGTQVTVKPPAPGGPSVFLFPPKPKDTLMISRTPEVTCVVVDVSHEDPEVKFNWYVDGVEVHNAKTKPREEQYNSTYRVVSVLTVLHQDWLNGKEYKCKVSNKALPAPIEKTISKAKGQPREPQVYTLPPSRDELTKNQVSLTCLVKGFYPSDIAVEWESNGQPENNYKTTPPVLDSDGSFFLYSKLTVDKSRWQQGNVFSCSVMHEALHNHYTQKSLSLSPGK
notes: Homodimer of two identical chains; also called monospecific, bivalent CD28 sdAb cx984
For B3, the binding result in experiment [2] is “binds”.

B4: 1C9-xELL (1C9 CD28 sdAb formatted with variant human IgG1 Fc xELL) (Fc fusion)
chain: B3 chain
notes: also called 1C9 sdAb-xELL
For the molecule B4, the binding result in experiment [3] is recorded as “binds”.

B5: cx8370 (PDL1xCD28 bispecific construct) (bispecific antibody)
chain: EVQLLESGGGEVQPGGSLRLSCAASGGIFAIKPISWYRQAPGKQREWVSTTTSSGATNYAESVKGRFTISRDNAKNTLYLQMSSLRAEDTAVYYCNVFEYWGQGTLVTVKPGGSGGSEVQLVQSGGGLVQTGGSLRLSCAASGRMFSNYAMGWFRQAPGKEREFVAAINYRRDSADYADSVKGRFTISRDNAKNTVYLEMNSLKPEDTAIYYCGFTYAGWASSRRDDYNYWGQGTQVTVKPPAPGGPSVFLFPPKPKDTLMISRTPEVTCVVVDVSHEDPEVKFNWYVDGVEVHNAKTKPREEQYNSTYRVVSVLTVLHQDWLNGKEYKCKVSNKALPAPIEKTISKAKGQPREPQVYTLPPSRDELTKNQVSLTCLVKGFYPSDIAVEWESNGQPENNYKTTPPVLDSDGSFFLYSKLTVDKSRWQQGNVFSCSVMHEALHNHYTQKSLSLSPGK
As to B5, in experiment [4], the binding result is on record as “no binding”.

B6: 1G7 CD28 sdAb formatted with human IgG1 Fc (sdAb-hFc) (Fc fusion)
chain: EVQLVQSGGALVQAGGSLRLSCVAPRTIGLISLMGWYRQAPGKQRELVATIIASGRTNYAESVKDRFTISRDNAENKVYLQVNSLKPEDTAVYYCRVNAETAPWSRRGFWGQGTQVTVKPPAPELLGGPSVFLFPPKPKDTLMISRTPEVTCVVVDVSHEDPEVKFNWYVDGVEVHNAKTKPREEQYNSTYRVVSVLTVLHQDWLNGKEYKCKVSNKALPAPIEKTISKAKGQPREPQVYTLPPSRDELTKNQVSLTCLVKGFYPSDIAVEWESNGQPENNYKTTPPVLDSDGSFFLYSKLTVDKSRWQQGNVFSCSVMHEALHNHYTQKSLSLSPGK
notes: also called 1G7 sdAb-IgG1
On to B6, for which the binding result in experiment [1] is listed as “binds”.

B7: cx694 (PDL1xCD28 bispecific construct) (bispecific antibody)
chain: EVQLLESGGGEVQPGGSLRLSCAASGGIFAIKPISWYRQAPGKQREWVSTTTSSGATNYAESVKGRFTISRDNAKNTLYLQMSSLRAEDTAVYYCNVFEYWGQGTLVTVKPGGSGGGGSEVQLVQSGGGLVQTGGSLRLSCAASGRMFSNYAMGWFRQAPGKEREFVAAINYRRDSADYADSVKGRFTISRDNAKNTVYLEMNSLKPEDTAIYYCGFTYAGWASSRRDDYNYWGQGTQVTVKPPAPGGPSVFLFPPKPKDTLMISRTPEVTCVVVDVSHEDPEVKFNWYVDGVEVHNAKTKPREEQYNSTYRVVSVLTVLHQDWLNGKEYKCKVSNKALPAPIEKTISKAKGQPREPQVYTLPPSRDELTKNQVSLTCLVKGFYPSDIAVEWESNGQPENNYKTTPPVLDSDGSFFLYSKLTVDKSRWQQGNVFSCSVMHEALHNHYTQKSLSLSPGK
notes: also called PDL1xCD28 bispecific protein
For the molecule B7, in experiment [4], the binding result is listed as “no binding”.
